The values that follow come from article PMC4947182.

The nature of series [1]: soluble expression of ectodomain in Sf9 cells. The note with it: glycan lost; control: WT JUNO ectodomain.
Series [2] can be described thus: mRNA complementation of Juno KO eggs, fertilization rate. The note with it: glycan lost; control: Juno KO eggs injected with WT mJuno mRNA.

B1: JUNO (folate receptor 4, IZUMO1R): N185D (protein)
parent chain: MAQWWQILLGLWAVLPTLAGDKLLSVCMNSKRHKQEPGPEDELYQECRPWEDNACCTRSTSWEAHLEEPLLFNFSMMHCGLLTPACRKHFIQAICFHECSPNLGPWIQPVVPNGQEEQRVWGVPLCQEDCEDWWRACHSSLTCKSNWLHGWDWSEEKKHCPAHEPCLPFSYHFPTPDDLCEKIWNNTFKASPERRNSGRCLQKWFEPTLSNPNVEVALHFAGSALAPQLSYTLPAFSLCLLFHP
Turning to B1, the expression_or_secretion entry in series [1] is reported as “abolishes”.

B2: JUNO (folate receptor 4, IZUMO1R): N73D (protein)
parent chain: MAQWWQILLGLWAVLPTLAGDKLLSVCMNSKRHKQEPGPEDELYQECRPWEDNACCTRSTSWEAHLEEPLLFNFSMMHCGLLTPACRKHFIQAICFHECSPNLGPWIQPVVPNGQEEQRVWGVPLCQEDCEDWWRACHSSLTCKSNWLHGWDWSEEKKHCPAHEPCLPFSYHFPTPDDLCEKIWNNTFKASPERRNSGRCLQKWFEPTLSNPNVEVALHFAGSALAPQLSYTLPAFSLCLLFHP
Take B2: the expression_or_secretion entry in series [1] is listed as “no change”. The “other: sperm-egg fusion, other: percent eggs fertilized” value in series [2] is reported as “no change, 94.7 vs 93.5”.
